Measurements from patent US20190375846A1.

Molecular target: human GITR at the cell surface (human) (UniProt Q9Y5U5)
Assay: cell-based or functional assay

human GITR at the cell surface (human), sequence (Q9Y5U5 26-241): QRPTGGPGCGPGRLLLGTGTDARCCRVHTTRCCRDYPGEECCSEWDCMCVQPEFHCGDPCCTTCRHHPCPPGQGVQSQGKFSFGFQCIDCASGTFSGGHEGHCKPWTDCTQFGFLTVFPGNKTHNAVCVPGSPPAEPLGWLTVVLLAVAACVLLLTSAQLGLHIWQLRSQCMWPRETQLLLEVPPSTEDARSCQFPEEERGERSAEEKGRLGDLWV

concentration of maximum signal, GITR agonism reporter assay: 1000 to 2000 ng/mL
Substance: HA-tagged human GITRL protein cross-linked with anti-HA tag antibody (from UniProt Q9UNG2 52-177) (ligand)
